From publication PMC8221199
Read-outs that look alike come from different tables or passages of the source.

What was measured:
[1] = molecular target: p53 N-terminal peptide (Homo sapiens) (UniProt P04637); details: cited from earlier work
[2] = molecular target: p53 N-terminal peptide (Homo sapiens) (UniProt P04637); details: cited from earlier work; remark: listed apart in the source
[3] = molecular target: p53 N-terminal peptide (Homo sapiens) (UniProt P04637); details: cited from earlier work; remark: listed apart in the source
[4] = molecular target: p53 N-terminal peptide (Homo sapiens) (UniProt P04637); details: cited from earlier work; remark: listed apart in the source
acetyltransferase p300 = acetyltransferase p300 (UniProt Q09472)
Chain of acetyltransferase p300 (Q09472 whole entry): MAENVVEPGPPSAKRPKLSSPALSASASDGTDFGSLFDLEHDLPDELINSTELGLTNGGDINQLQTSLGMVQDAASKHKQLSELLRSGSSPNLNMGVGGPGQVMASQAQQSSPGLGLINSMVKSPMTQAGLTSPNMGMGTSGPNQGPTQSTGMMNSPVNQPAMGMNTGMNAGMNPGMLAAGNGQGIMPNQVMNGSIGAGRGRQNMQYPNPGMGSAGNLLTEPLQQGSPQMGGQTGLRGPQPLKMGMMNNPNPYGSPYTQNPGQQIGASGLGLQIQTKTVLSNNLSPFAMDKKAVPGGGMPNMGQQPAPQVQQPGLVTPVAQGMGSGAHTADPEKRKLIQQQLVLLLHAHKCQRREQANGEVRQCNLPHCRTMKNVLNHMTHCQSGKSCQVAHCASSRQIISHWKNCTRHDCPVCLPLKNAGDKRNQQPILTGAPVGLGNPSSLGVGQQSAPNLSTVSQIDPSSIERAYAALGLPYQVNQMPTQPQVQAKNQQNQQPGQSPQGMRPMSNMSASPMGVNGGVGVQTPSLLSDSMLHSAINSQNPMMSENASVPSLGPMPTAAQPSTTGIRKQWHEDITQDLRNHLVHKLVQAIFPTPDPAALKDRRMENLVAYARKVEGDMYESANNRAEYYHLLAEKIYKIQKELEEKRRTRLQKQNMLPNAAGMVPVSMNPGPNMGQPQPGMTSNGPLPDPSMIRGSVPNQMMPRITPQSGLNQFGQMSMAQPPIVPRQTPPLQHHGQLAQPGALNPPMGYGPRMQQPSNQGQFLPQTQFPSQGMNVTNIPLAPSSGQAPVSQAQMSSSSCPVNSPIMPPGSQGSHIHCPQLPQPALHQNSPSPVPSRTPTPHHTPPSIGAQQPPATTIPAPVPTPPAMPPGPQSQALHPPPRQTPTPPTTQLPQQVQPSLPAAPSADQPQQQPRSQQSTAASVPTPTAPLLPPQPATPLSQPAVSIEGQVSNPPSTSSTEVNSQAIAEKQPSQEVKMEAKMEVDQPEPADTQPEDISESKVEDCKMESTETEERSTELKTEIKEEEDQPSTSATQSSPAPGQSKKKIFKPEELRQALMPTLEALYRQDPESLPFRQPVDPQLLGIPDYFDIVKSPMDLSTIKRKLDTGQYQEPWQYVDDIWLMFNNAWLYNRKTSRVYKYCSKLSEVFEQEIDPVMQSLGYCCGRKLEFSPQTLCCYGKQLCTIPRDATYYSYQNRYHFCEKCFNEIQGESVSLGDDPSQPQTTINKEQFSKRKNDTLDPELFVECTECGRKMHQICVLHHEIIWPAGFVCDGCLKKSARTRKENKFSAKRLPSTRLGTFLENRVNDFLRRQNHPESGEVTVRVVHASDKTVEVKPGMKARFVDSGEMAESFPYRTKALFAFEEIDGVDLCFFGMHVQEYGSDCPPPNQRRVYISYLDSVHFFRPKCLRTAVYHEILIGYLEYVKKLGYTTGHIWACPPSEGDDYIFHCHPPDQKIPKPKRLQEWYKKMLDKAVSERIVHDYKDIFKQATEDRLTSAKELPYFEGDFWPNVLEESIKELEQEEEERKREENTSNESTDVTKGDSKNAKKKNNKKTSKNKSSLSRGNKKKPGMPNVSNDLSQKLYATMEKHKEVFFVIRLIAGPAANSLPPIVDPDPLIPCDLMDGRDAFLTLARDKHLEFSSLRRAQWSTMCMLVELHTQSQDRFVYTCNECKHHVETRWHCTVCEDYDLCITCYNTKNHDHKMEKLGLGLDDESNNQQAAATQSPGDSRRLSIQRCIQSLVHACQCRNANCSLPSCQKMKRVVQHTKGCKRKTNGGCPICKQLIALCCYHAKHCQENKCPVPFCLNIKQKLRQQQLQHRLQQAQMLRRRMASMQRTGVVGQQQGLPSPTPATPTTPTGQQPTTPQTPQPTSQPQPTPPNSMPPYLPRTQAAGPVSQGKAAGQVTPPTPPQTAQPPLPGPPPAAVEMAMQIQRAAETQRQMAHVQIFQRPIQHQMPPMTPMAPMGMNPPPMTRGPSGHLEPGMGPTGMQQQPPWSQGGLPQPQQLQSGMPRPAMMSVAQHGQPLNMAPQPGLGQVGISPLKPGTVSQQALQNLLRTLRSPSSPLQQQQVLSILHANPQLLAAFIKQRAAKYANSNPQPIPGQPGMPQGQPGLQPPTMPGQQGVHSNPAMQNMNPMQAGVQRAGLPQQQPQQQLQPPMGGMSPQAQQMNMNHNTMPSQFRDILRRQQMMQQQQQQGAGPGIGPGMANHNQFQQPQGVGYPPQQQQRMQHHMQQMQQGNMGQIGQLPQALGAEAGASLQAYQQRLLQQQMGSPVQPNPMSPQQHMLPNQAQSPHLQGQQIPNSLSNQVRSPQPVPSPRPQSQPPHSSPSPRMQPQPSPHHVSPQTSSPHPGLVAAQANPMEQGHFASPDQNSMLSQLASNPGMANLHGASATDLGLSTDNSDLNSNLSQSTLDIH

Chain of p300 Taz1 (Q09472 323-423): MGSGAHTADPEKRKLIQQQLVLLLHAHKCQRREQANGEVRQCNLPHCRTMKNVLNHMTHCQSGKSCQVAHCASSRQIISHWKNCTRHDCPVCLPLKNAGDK
Chain of p300 IBiD (Q09472 2050-2094): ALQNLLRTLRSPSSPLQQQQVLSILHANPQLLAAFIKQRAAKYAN
Chain of p300 Taz2 (Q09472 1723-1812): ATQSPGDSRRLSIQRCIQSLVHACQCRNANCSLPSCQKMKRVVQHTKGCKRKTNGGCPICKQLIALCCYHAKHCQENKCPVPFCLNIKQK
Chain of p300 Kix (Q09472 563-648): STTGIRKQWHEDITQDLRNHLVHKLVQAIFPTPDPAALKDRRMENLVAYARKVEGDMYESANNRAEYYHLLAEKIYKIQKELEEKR

p300 IBiD (from UniProt Q09472)
Kd [1]: 8000 nM

p300 Kix (from UniProt Q09472)
Kd [2]: 3000 nM

p300 Taz1 (from UniProt Q09472)
Kd [3]: 1000 nM

p300 Taz2 (from UniProt Q09472)
Kd [4]: 20 nM

semi-synthetic full-length p53 with phosphoserine at positions 15 and 20 (from UniProt P04637 1-393) (natural protein)
p300-dependent acetylation of p53 (western blot, Lys373ac), relative rate (acetyltransferase p300): 2.3 fold
